One assay addresses VEGF (UniProt P15692). In words: VEGF co-incubated with AB160, particulate removed, free VEGF in the supernatant measured by ELISA. A general note: ELISA stands for enzyme-linked immunosorbent assay.
Assay [1] addresses AB160 (nanoparticle of albumin-bound paclitaxel and bevacizumab, ratio about 10:4, average size 160 nm) (UniProt P02768). The assay is described as follows: flow cytometry of particles stained with goat anti-mouse IgG and PE detection. In general terms: In flow cytometry, cells or beads pass a laser one at a time.
Assay [2] concerns the target ABRAXANE (albumin-bound paclitaxel) (UniProt P02768). The assay is described as follows: flow cytometry of particles stained with goat anti-mouse IgG and PE detection; ABX alone as comparison.
Assay [3] addresses T1, ABRAXANE (albumin-bound paclitaxel) (UniProt P02768 25-609, non-covalently bound paclitaxel (nanoparticle of about 130 nm)).
T1 construct: A nanoparticle of many albumin molecules with paclitaxel, not a single protein; also called ABX; Paclitaxel Albumin-stabilized Nanoparticle Formulation
In words: VEGF co-incubated with ABX for 2 hours, particulate spun down, free VEGF in the supernatant measured by ELISA.
Protocol: The VEGF was incubated with the nanoparticles for 2 hours at room temperature. The suspension was spun at 6000 rpm for 15 minutes, supernatants were collected and free VEGF was measured by ELISA. Briefly, ELISA plates were coated with capture antibody overnight at 4° C. Plates were washed, blocked and standards and samples were added. After washing, detection antibody was added and plates were developed with substrate (R and D Systems, Minneapolis, Minn.). […] The concentration of unbound VEGF was determined with a standard curve from 0 to 2000 μg/ml.

Regarding “AB160 (nanoparticle of albumin-bound paclitaxel and bevacizumab, ratio about 10:4, average size 160 nm) (from UniProt P02768 25-609)”, the % VEGF unbound with VEGF is less than 10%. Turning to goat anti-mouse IgG (antibody), the % positive turned out to be 41.2% in assay [1] and 6.7% in assay [2].

B1: VEGF (ligand, UniProt P15692-4 27-191, looked up)
chain: APMAEGGGQNHHEVVKFMDVYQRSYCHPIETLVDIFQEYPDEIEYIFKPSCVPLMRCGGCCNDEGLECVPTEESNITMQIMRIKPHQGQHIGEMSFLQHNKCECRPKKDRARQENPCGPCSERRKHLFVQDPQTCKCSCKNTDSRCKARQLELNERTCRCDKPRR
notes: Soluble VEGF added to the nanoparticles
As for B1, the binding result in assay [3] is listed as “no binding (tested: >80% VEGF unbound)”.

The values above are taken from patent publication US20200308294A1 (published 2020).
